Results taken from US20130058943A1.

How the values were obtained:
[1] = target: recombinant human TNF (human) (UniProt P01375); assay: anti-TNF ELISA, AU/mg of final lot over defatted colostrum
[2] = target: recombinant human TNF (human) (UniProt P01375); assay: anti-TNF ELISA, protein by BCA; second of two lots
[3] = target: recombinant cynomolgus monkey TNF (cynomolgus monkey) (UniProt P79337); assay: cell-based or functional assay
[4] = target: transmembrane TNF on stimulated human PBMC (human) (UniProt P01375); assay: cell-based or functional assay
[5] = target: recombinant rat TNF (rat) (UniProt P16599); assay: cell-based or functional assay
Sequence of UniProt P16599 (P16599 whole entry, form in doubt): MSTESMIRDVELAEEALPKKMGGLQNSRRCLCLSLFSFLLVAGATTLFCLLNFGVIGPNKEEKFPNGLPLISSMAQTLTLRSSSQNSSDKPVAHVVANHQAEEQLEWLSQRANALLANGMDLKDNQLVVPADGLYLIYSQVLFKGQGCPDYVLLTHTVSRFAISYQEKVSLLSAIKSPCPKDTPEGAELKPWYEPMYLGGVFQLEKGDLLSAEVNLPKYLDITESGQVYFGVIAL

[6] = target: recombinant rhesus macaque TNF (rhesus macaque) (UniProt P48094); assay: cell-based or functional assay
Sequence of UniProt P48094 (P48094 whole entry, form in doubt): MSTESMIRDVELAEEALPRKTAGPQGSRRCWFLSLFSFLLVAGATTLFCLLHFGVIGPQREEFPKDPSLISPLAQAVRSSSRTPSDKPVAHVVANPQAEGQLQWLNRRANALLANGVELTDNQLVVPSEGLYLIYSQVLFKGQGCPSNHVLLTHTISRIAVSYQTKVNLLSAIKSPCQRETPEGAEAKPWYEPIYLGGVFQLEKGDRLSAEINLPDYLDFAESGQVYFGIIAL

[7] = target: recombinant murine TNF (murine) (UniProt P06804); assay: cell-based or functional assay
Sequence of UniProt P06804 (P06804 whole entry, form in doubt): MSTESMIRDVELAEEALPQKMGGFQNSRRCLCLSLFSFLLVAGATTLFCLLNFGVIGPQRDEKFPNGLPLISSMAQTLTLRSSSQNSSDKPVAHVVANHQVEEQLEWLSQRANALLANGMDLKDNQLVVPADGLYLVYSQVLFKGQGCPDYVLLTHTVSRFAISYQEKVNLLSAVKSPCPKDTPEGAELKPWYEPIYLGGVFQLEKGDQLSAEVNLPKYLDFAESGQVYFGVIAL

[8] = target: recombinant bovine TNF (bovine) (UniProt Q06599); assay: cell-based or functional assay
Sequence of UniProt Q06599 (Q06599 whole entry, form in doubt): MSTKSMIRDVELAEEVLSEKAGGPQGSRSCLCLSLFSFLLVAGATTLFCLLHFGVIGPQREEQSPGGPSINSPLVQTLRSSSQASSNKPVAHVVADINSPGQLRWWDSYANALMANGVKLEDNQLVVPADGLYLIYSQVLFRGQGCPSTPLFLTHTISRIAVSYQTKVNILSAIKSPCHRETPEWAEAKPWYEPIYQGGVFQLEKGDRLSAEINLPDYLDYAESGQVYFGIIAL

[9] = target: recombinant human TNF (human) (UniProt P01375); assay: cell-based or functional assay
[10] = target: recombinant canine TNF (canine) (UniProt P51742); assay: cell-based or functional assay
Sequence of UniProt P51742 (P51742 whole entry, form in doubt): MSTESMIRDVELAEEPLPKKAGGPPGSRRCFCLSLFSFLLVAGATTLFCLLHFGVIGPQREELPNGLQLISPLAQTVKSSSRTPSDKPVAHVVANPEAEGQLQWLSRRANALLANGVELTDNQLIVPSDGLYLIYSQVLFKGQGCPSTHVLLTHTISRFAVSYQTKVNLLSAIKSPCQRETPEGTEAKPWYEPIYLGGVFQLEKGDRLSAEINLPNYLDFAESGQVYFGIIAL

[11] = target: recombinant human TNF (human) (UniProt P01375); assay: table head: EC50 in TNF ELISA; the text that introduces the table speaks of the L929 neutralization assay
[12] = target: recombinant human TNF (human) (UniProt P01375); assay: anti-TNF ELISA, protein by BCA; first of two lots
[13] = target: recombinant human IL-6 (human) (UniProt P05231); assay: sandwich ELISA, rhIL-6 300 pg/ml captured by plate-bound antibody
Sequence of UniProt P05231 (P05231 30-212 limits assumed): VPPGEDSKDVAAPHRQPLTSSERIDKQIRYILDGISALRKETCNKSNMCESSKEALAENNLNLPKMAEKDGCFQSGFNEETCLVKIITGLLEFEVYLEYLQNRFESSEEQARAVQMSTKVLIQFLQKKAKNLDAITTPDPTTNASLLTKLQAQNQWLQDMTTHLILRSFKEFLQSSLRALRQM

[14] = target: recombinant human TNF (human) (UniProt P01375); assay: sandwich ELISA, rhTNF 250 pg/ml captured by plate-bound antibody

Sequence of UniProt P79337 (P79337 whole entry, form in doubt): as the sequence (P48094 whole entry, form in doubt) above, with R8Q, T45A, L113V counted along it

fold increase of potency against defatted colostrum [1]	anti-TNF activity by ELISA per mg protein (AU/mg protein) [2]	EC50, L929 neutralization assay [3]	Late apoptotic cells, annexin V / propidium iodide FACS of stimulated human PBMC (untreated 27.16%) [4]	Total apoptotic cells, annexin V / propidium iodide FACS of stimulated human PBMC (untreated 34.65%) [4]	EC50, L929 neutralization assay [5]	EC50, L929 neutralization assay [6]	EC50, L929 neutralization assay [7]	EC50, L929 neutralization assay [8]	EC50, L929 neutralization assay [9]	EC50, L929 neutralization assay [10]	EC50 [11]	anti-TNF activity by ELISA per mg protein (AU/mg protein) [12]	Absorbance 450 nm (absorbance at 450 nm) [13]	Absorbance 450 nm (absorbance at 450 nm) [14]	Substance
1.9 fold	526	48 µg/mL	43.3%	52.1%	> 2000 µg/mL	32 µg/mL	> 2000 µg/mL	> 2000 µg/mL	28 µg/mL	250 µg/mL	15.9 µg/mL	634	0.03	0.76	AVX-470, bovine colostrum-derived polyclonal anti-hTNF antibody
–	–	–	–	–	–	–	–	–	–	–	–	–	0.01	-0.01	Control Bovine Ig (antibody)
